{
  "source": "paper PMC5466068",
  "origin": "cited, not measured here",
  "target": "Cys32 (UniProt position 32, FSATWCGPCKM)",
  "assay": "NMR",
  "settings": "not stated (a free thiol at the catalytic Cys implies the reduced form)",
  "data": [
    {"substance": "Thioredoxin-1 (Thrx-1) (Homo sapiens)", "values": [
      {"measurement": "pKa", "value": "~6.3"}
    ]}
  ]
}
